This is an account of results in patent US12291570B2, “Treatment of metastatic pancreatic adenocarcinoma” (BioLineRx Ltd., priority 2018, dated 2025).

Square brackets hold non-standard residues; d marks the D form. Ends that are not written are not given here. 2Nal = N[C@@H](Cc1ccc2ccccc2c1)C(=O)O; Cit = NC(=O)NCCC[C@H](N)C(=O)O

Data set [1] in a line: Solubility of BL-8040 powder. The class given is physicochemical.
Data set [2] concerns human keratinocytes and normal human hematopoietic cells. Conditions: cited from earlier work.
Data set [3] deals with metastatic pancreatic adenocarcinoma (PDAC). Particulars: cited from earlier work.
The next data set deals with CXCR4 (Homo sapiens, UniProt P61073). Conditions: read-out: IC50, binds to CXCR4 with high affinity; cited from earlier work.
For data set [4], the system named is metastatic pancreatic cancer. Conditions: metastatic/advanced pancreatic cancer; cited from earlier work.

Sequence of CXCR4 (P61073 whole entry, species assumed): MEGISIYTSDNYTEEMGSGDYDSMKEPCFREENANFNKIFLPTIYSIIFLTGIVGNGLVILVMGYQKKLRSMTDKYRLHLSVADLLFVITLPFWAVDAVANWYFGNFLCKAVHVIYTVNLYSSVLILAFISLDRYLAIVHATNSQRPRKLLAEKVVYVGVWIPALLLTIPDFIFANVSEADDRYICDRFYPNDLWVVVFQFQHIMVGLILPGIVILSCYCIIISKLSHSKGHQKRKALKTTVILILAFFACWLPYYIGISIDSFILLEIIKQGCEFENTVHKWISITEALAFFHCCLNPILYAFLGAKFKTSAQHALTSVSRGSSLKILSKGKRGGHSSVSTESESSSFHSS

As a reminder, the IC50 is the concentration that gives 50% inhibition. Consider “BL-8040 (RR[2Nal]CY[Cit]K[dK]PYR[Cit]CR-NH2; not fully specified (residue 1, N-terminus, bridges); cysteine pairing not given here)”, for which the “solubility in 0.45% Sodium Chloride (half normal saline)” value in data set [1] (0.45% Sodium Chloride) was “freely soluble”. Further, in data set [1] (water), the solubility in water result is given as “freely soluble”. Further, the “effect on viability of human keratinocytes and normal human hematopoietic cells” value in data set [2] is given as “did not affect the viability”. Moreover, in data set [3], the “level of effector CD8 cells that express Granzyme B in the tumor microenvironment” value is on record as “increasing” and the “level of myeloid derived suppressor cells (MDSCs) in the tumor microenvironment” value is “decreasing”. Moreover, in the data set with CXCR4, the IC50 is 0.54 to 4.5 nM.

As for FOLFIRINOX, the “increase in median survival” value in data set [4] is reported as 4.3 months.
